Laboratory results from patent US20150051149A1 (published 2015).

Key:
DRB*0701 = DRB*0701 (human); assay: HLA competition binding
DRB*0301 = DRB*0301 (human, UniProt P01903 26-216); assay: HLA competition binding

Row | IC50 (DRB*0701) | IC50 (DRB*0301) | Binder
1 | > 200000 nM | – | PVQEFTVPGSKSTATISGLK [DE Loop SEQ ID NO 51]
2 | 500 nM | 1000 nM | MGEVVAATPTSLLIS [N-terminal to BC Loop SEQ ID NO 53]
3 | 1000 nM | – | PTSLLISWDAPAVTVRYYRITYG [BC Loop SEQ ID NO 58]
